The text below walks through data of the Human Domainome abundance scans (Beltran et al. 2025).

The labels stand for the following.
B1: Formin-binding protein 4, residues 200 to 261; numbered along this chain, Q8N3X1 (parent)
chain: SGWQYDTQCSLAGVGIEMGDWQEVWDENTGCYYYWNTQTNEVTWELPQYLATQVQGLQHYQP

± gives the uncertainty stated by the source.

In this data set the parent is B1. Put plainly: abundance fitness (aPCA) (normalised: wild type 0, dead -1); higher = more abundant; growth selection in yeast, the domain comes from the species named. The conditions noted are these: Homo sapiens.
SGWQYDTQCSLAGVGIEMGDWQEVWDENTGCYYYWNTQTNEVTWELPLYLATQVQGLQHYQP: the abundance fitness came to 0.043 ± 0.062.

As to SGWQYDTQCSLAGVGIEMGDWQEVWDENTGCYYYWNTQTNEVTWELPDYLATQVQGLQHYQP, the abundance fitness was found to be 0.02 ± 0.16.

Regarding SGWQYDTQCSLAGVGIEMGDWQEVWDENTGCYYYWNTQTNEVTWELPGYLATQVQGLQHYQP, the abundance fitness was -0.007 ± 0.059.

On to SGWQYDTQCSLAGVGIEMGDWQEVWDENTGCYYYWNTQTNEVTWELPIYLATQVQGLQHYQP, for which the abundance fitness was -0.262 ± 0.15.

Take SGWQYDTQCSLAGVGIEMGDWQEVWDENTGCYYYWNTQTNEVTWELPMYLATQVQGLQHYQP: the abundance fitness amounted to 0.085 ± 0.091.

With SGWQYDTQCSLAGVGIEMGDWQEVWDENTGCYYYWNTQTNEVTWELPTYLATQVQGLQHYQP, the abundance fitness is 0.053 ± 0.09.

With SGWQYDTQCSLAGVGIEMGDWQEVWDENTGCYYYWNTQTNEVTWELPEYLATQVQGLQHYQP, the abundance fitness was -0.024 ± 0.11.

On to SGWQYDTQCSLAGVGIEMGDWQEVWDENTGCYYYWNTQTNEVTWELPPYLATQVQGLQHYQP, for which the abundance fitness stood at 0.319 ± 0.079.

Turning to SGWQYDTQCSLAGVGIEMGDWQEVWDENTGCYYYWNTQTNEVTWELPNYLATQVQGLQHYQP, the abundance fitness was -0.059 ± 0.17.

As for SGWQYDTQCSLAGVGIEMGDWQEVWDENTGCYYYWNTQTNEVTWELPSYLATQVQGLQHYQP, the abundance fitness was -0.038 ± 0.068.

With SGWQYDTQCSLAGVGIEMGDWQEVWDENTGCYYYWNTQTNEVTWELPVYLATQVQGLQHYQP, the abundance fitness was -0.127 ± 0.072.

For SGWQYDTQCSLAGVGIEMGDWQEVWDENTGCYYYWNTQTNEVTWELPWYLATQVQGLQHYQP, the abundance fitness was -0.417 ± 0.093.

On to SGWQYDTQCSLAGVGIEMGDWQEVWDENTGCYYYWNTQTNEVTWELPHYLATQVQGLQHYQP, for which the abundance fitness was -0.133 ± 0.15.

As for SGWQYDTQCSLAGVGIEMGDWQEVWDENTGCYYYWNTQTNEVTWELPYYLATQVQGLQHYQP, the abundance fitness worked out at 0.23 ± 0.13.

In the case of SGWQYDTQCSLAGVGIEMGDWQEVWDENTGCYYYWNTQTNEVTWELPFYLATQVQGLQHYQP, the abundance fitness is -0.293 ± 0.16.

In the case of SGWQYDTQCSLAGVGIEMGDWQEVWDENTGCYYYWNTQTNEVTWELPRYLATQVQGLQHYQP, the abundance fitness was -0.061 ± 0.063.

For the variant SGWQYDTQCSLAGVGIEMGDWQEVWDENTGCYYYWNTQTNEVTWELPAYLATQVQGLQHYQP, the abundance fitness was -0.039 ± 0.082.

With SGWQYDTQCSLAGVGIEMGDWQEVWDENTGCYYYWNTQTNEVTWELPCYLATQVQGLQHYQP, the abundance fitness was -0.147 ± 0.092.

For SGWQYDTQCSLAGVGIEMGDWQEVWDENTGCYYYWNTQTNEVTWELPKYLATQVQGLQHYQP, the abundance fitness amounted to 0.129 ± 0.1.

With SGWQYDTQCSLAGVGIEMGDWQEVWDENTGCYYYWNTQTNEVTWELPQMLATQVQGLQHYQP, the abundance fitness was -0.113 ± 0.084.

With SGWQYDTQCSLAGVGIEMGDWQEVWDENTGCYYYWNTQTNEVTWELPQSLATQVQGLQHYQP, the abundance fitness is 0.126 ± 0.065.

Consider SGWQYDTQCSLAGVGIEMGDWQEVWDENTGCYYYWNTQTNEVTWELPQFLATQVQGLQHYQP, for which the abundance fitness amounted to 0.004 ± 0.097.

For SGWQYDTQCSLAGVGIEMGDWQEVWDENTGCYYYWNTQTNEVTWELPQCLATQVQGLQHYQP, the abundance fitness was -0.069 ± 0.11.

Regarding SGWQYDTQCSLAGVGIEMGDWQEVWDENTGCYYYWNTQTNEVTWELPQPLATQVQGLQHYQP, the abundance fitness is -0.165 ± 0.084.

As to SGWQYDTQCSLAGVGIEMGDWQEVWDENTGCYYYWNTQTNEVTWELPQKLATQVQGLQHYQP, the abundance fitness was -0.181 ± 0.12.

As to SGWQYDTQCSLAGVGIEMGDWQEVWDENTGCYYYWNTQTNEVTWELPQVLATQVQGLQHYQP, the abundance fitness is -0.097 ± 0.067.

As for SGWQYDTQCSLAGVGIEMGDWQEVWDENTGCYYYWNTQTNEVTWELPQDLATQVQGLQHYQP, the abundance fitness was -0.006 ± 0.11.

On to SGWQYDTQCSLAGVGIEMGDWQEVWDENTGCYYYWNTQTNEVTWELPQRLATQVQGLQHYQP, for which the abundance fitness was -0.527 ± 0.088.

In the case of SGWQYDTQCSLAGVGIEMGDWQEVWDENTGCYYYWNTQTNEVTWELPQTLATQVQGLQHYQP, the abundance fitness was -0.007 ± 0.089.

In the case of SGWQYDTQCSLAGVGIEMGDWQEVWDENTGCYYYWNTQTNEVTWELPQHLATQVQGLQHYQP, the abundance fitness came out at 0.118 ± 0.12.

For the variant SGWQYDTQCSLAGVGIEMGDWQEVWDENTGCYYYWNTQTNEVTWELPQALATQVQGLQHYQP, the abundance fitness turned out to be 0.022 ± 0.086.

In the case of SGWQYDTQCSLAGVGIEMGDWQEVWDENTGCYYYWNTQTNEVTWELPQILATQVQGLQHYQP, the abundance fitness was found to be 0.081 ± 0.15.

In the case of SGWQYDTQCSLAGVGIEMGDWQEVWDENTGCYYYWNTQTNEVTWELPQLLATQVQGLQHYQP, the abundance fitness was -0.126 ± 0.062.

Consider SGWQYDTQCSLAGVGIEMGDWQEVWDENTGCYYYWNTQTNEVTWELPQELATQVQGLQHYQP, for which the abundance fitness is 0.09 ± 0.08.

Turning to SGWQYDTQCSLAGVGIEMGDWQEVWDENTGCYYYWNTQTNEVTWELPQNLATQVQGLQHYQP, the abundance fitness is -0.162 ± 0.12.

Turning to SGWQYDTQCSLAGVGIEMGDWQEVWDENTGCYYYWNTQTNEVTWELPQWLATQVQGLQHYQP, the abundance fitness was -0.266 ± 0.093.

SGWQYDTQCSLAGVGIEMGDWQEVWDENTGCYYYWNTQTNEVTWELGQYLATQVQGLQHYQP: the abundance fitness is -1.04 ± 0.15.

Regarding SGWQYDTQCSLAGVGIEMGDWQEVWDENTGCYYYWNTQTNEVTWELVQYLATQVQGLQHYQP, the abundance fitness is -0.583 ± 0.11.

On to SGWQYDTQCSLAGVGIEMGDWQEVWDENTGCYYYWNTQTNEVTWELFQYLATQVQGLQHYQP, for which the abundance fitness was -1.1 ± 0.24.

On to SGWQYDTQCSLAGVGIEMGDWQEVWDENTGCYYYWNTQTNEVTWELRQYLATQVQGLQHYQP, for which the abundance fitness was -0.895 ± 0.11.

On to SGWQYDTQCSLAGVGIEMGDWQEVWDENTGCYYYWNTQTNEVTWELQQYLATQVQGLQHYQP, for which the abundance fitness is -1.23 ± 0.33.

On to SGWQYDTQCSLAGVGIEMGDWQEVWDENTGCYYYWNTQTNEVTWELWQYLATQVQGLQHYQP, for which the abundance fitness is -1.12 ± 0.2.

On to SGWQYDTQCSLAGVGIEMGDWQEVWDENTGCYYYWNTQTNEVTWELIQYLATQVQGLQHYQP, for which the abundance fitness was -1.02 ± 0.23.
